According to article PMC8496732, “RAB33B recruits the ATG16L1 complex to the phagophore via a noncanonical RAB binding protein” (Autophagy, 2020):

B1: ATG16L1(141–265) wild type, expressed separately (domain or fragment, UniProt Q8C0J2 141-265, looked up)
chain: LETNCLDLRTKLQDLEVANQTLKDEYDALQITFTALEEKLRKTTEENQELVTRWMAEKAQEANRLNAENEKDSRRRQARLQKELAEAAKEPLPVEQDDDIEVIVDETSDHTEETSPVRAVSRAAT
notes: pOPIN vector with GST tag; also called WT
B2: ATG16L1(141–265) N206A (domain or fragment, UniProt Q8C0J2 141-265, looked up)
chain: LETNCLDLRTKLQDLEVANQTLKDEYDALQITFTALEEKLRKTTEENQELVTRWMAEKAQEANRLAAENEKDSRRRQARLQKELAEAAKEPLPVEQDDDIEVIVDETSDHTEETSPVRAVSRAAT
B3: ATG16L1(141–265) N206A,N209A (domain or fragment, UniProt Q8C0J2 141-265, looked up)
chain: LETNCLDLRTKLQDLEVANQTLKDEYDALQITFTALEEKLRKTTEENQELVTRWMAEKAQEANRLAAEAEKDSRRRQARLQKELAEAAKEPLPVEQDDDIEVIVDETSDHTEETSPVRAVSRAAT
B4: ATG16L1(141–265) N209A (domain or fragment, UniProt Q8C0J2 141-265, looked up)
chain: LETNCLDLRTKLQDLEVANQTLKDEYDALQITFTALEEKLRKTTEENQELVTRWMAEKAQEANRLNAEAEKDSRRRQARLQKELAEAAKEPLPVEQDDDIEVIVDETSDHTEETSPVRAVSRAAT

What was measured:
Settings in all cases: both partners purified
[1] = molecular target: T1, RAB33B wild type, 6xHis, labeled with Tide Fluor 3 (human, UniProt Q9H082 1-229, labeled with Tide Fluor 3 (TF3) maleimide); assay: MST; TF3-labeled RAB33B at 10 μM, GDP-bound; unlabeled ATG16L1(141–265) titrated from 400 μM to 12 nM; 20 mM HEPES pH 7.2, 25 mM NaCl, 2 mM DTE, 2 mM MgCl2, 0.05% Tween 20, 10 µM GDP
T1 construct: RAB33B, human; Loaded with GppNHp or GDP by nucleotide exchange; The crystal construct is 30–218; also called WT^GppNHp; WT^GDP
T1 sequence (looked up): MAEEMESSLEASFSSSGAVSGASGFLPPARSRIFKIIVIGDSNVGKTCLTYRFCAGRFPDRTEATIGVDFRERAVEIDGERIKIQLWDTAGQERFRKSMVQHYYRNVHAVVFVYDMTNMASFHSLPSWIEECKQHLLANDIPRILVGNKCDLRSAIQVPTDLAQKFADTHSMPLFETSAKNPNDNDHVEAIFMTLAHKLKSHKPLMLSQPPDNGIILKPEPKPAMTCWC

[2] = molecular target: T2, RAB33B K35A, 6xHis, labeled with Tide Fluor 3 (human, UniProt Q9H082 1-229, K35A, labeled with Tide Fluor 3 (TF3) maleimide); assay: MST; TF3-labeled RAB33B at 10 μM, GppNHp-bound; unlabeled ATG16L1(141–265) titrated from 400 μM to 12 nM; 20 mM HEPES pH 7.2, 25 mM NaCl, 2 mM DTE, 2 mM MgCl2, 0.05% Tween 20, 10 µM GppNHp
T2 construct: RAB33B, human, K35A; also called K35A^GppNHp
T2 sequence (looked up): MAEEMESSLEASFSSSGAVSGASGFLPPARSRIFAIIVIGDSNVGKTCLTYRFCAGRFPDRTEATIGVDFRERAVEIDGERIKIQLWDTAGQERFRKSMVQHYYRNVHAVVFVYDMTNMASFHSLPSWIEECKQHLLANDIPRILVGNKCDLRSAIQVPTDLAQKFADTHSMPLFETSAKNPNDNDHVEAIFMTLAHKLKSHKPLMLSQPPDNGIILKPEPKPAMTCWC

[3] = molecular target: T3, RAB33B I66A, 6xHis, labeled with Tide Fluor 3 (human, UniProt Q9H082 1-229, I66A, labeled with Tide Fluor 3 (TF3) maleimide); assay: as above
T3 construct: RAB33B, human, I66A; also called I66A^GppNHp
T3 sequence (looked up): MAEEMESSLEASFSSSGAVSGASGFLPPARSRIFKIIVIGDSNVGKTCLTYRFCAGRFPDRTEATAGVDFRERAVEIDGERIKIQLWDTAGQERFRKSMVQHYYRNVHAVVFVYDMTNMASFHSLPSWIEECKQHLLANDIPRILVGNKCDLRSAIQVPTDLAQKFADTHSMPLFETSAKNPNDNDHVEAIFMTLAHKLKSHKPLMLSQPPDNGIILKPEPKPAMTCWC

[4] = molecular target: T4, RAB33B F95A, 6xHis, labeled with Tide Fluor 3 (human, UniProt Q9H082 1-229, F95A, labeled with Tide Fluor 3 (TF3) maleimide); assay: as above
T4 construct: RAB33B, human, F95A; also called F95A^GppNHp
T4 sequence (looked up): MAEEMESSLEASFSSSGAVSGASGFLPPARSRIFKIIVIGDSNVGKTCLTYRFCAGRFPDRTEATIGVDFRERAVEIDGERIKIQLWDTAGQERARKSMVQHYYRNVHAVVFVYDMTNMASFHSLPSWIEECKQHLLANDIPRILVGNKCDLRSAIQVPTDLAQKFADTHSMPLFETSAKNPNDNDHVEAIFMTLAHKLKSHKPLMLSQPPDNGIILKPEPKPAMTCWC

[5] = molecular target: T1, RAB33B wild type, 6xHis, labeled with …; assay: as above

Binder | Kd [1] | Kd [2] | Kd [3] | Kd [4] | Kd [5]
B1 | 0.213 µM | > 100 µM | 25.9 µM | 17.1 µM | 0.095 µM
B2 |  |  |  |  | 3.38 µM
B3 |  |  |  |  | 24.1 µM
B4 |  |  |  |  | 0.884 µM
